B1: 3LEC 66 (VHH)
VHH: QVQLQESGGGLVQPGGSLRLSCAASRSFFSFNAMGWYRQAPGKQRELVAAITNGGRIAYGTSVMGRFTISRDNAKNTVYLQMDSLKPEDTAVYYCNAKPAPVYGSTVGDYWGQGTQVTVSS
notes: Entry includes C-terminal AAA-HA-His6 (pMECS)
B2: 2LEC 59 (VHH)
VHH: QVQLQESGGGLVQPGGSLRLSCAVSRNFFSINAMGWYRQAPGKQRELVAAITNGGRIAYGTSVMGRFTISRDDAKNTVDLQMNSLRPEDTAVYYCNAKAIPVYGSTVEDYWGQGTQVTVSS
notes: as for B1
B3: 1LEC 28 (VHH)
VHH: QVQLQESGGGLVQSGGSLRLSCAASGSVFSINAWGWYRQAPGKQRELVAAITNQGRIAYAPSVNGRFTISRDSAKNTVYLQMNSLKPEDTAVYYCNAKPTPVYGSTVGDYWGQGTQVTVSS
notes: as for B1
B4: 2LEC 16 (VHH)
VHH: QVQLQESGGGLVQPGGSLRLSCLASRSFSSFNAMGWYRQAPGKERELVAAITNGGRIAYGIAVNGRFTISRDNAKNTVYLQMNSLKPEDTAVYYCNAKPTPVYGSTVGDYWGQGTQVTVSS
notes: as for B1
B5: 1LEC 84 (VHH)
VHH: QVQLQESGGGLVQPGGSLRLSCAASGSIFSIAAMGWYRQAPGKQRELVAAITSGGRRAYADSVKGRFTISRDNDENTVALQMNSLKPEDTDVYYCNAKADHNDYWGQGTQITVSS
notes: as for B1
B6: 1LEC 9 (VHH)
VHH: QVQLQESGGGLVQAGGSLRLSCAASGSITSINAMGWYRQAPGKQRELVAAITSGGRLSYADSVKGRFTISRDNAESTVALQMNSLKPEDTAVYSCAAFQSSGIDWGQGTQVTVSS
notes: as for B1
B7: 2LEC 54 (VHH)
VHH: QVQLQESGGGLAQPGGSLQLSCAASGRAFSTNSMGWYRQASGKQRELVAAITSQGRITLADSVKGRFTISSDNTKNTVFLQMNSLKPEDTAVYYCNAWTTLGTFGGQGTQVTVSS
notes: as for B1
B8: 1LEC 88 (VHH)
VHH: QVQLQESGGGLVQPGGSLRLSCAAIGNIASITAMGWYRQAPGKQRELVAAITSASASRTTYADSVKGRFTISRDNAKNTVYLQMNSLQPEDTAVYYCKGFRSGADDYWGQGTQVTVSS
notes: as for B1
B9: 1LEC 7 (VHH)
VHH: QVQLQESGGGLVQPGGSLRLSCAASGRISSINSMGWYRQAPGNQRELVAAITNGGAKTYADSVKGRFTISTDNAGNTVYLQMDSLRPEDTAVYYCKAFTRRDDYWGQGTQITVSS
notes: as for B1
B10: 3LEC 57 (VHH)
VHH: QVQLQESGGGLVQPGGSLRLSCAASGRISSINSMGWYRQAPGKQRELVAAITNGGAKTYADSVKGRFTISRDGAGNTVYLQMDNLRPEDTAVYYCKAFTRTYDYWGQGTQVTVSS
notes: as for B1
B11: 1LEC 42 (VHH)
VHH: QVQLQESGGGLVQPGGSLRLSCAASGRVFSINAMGWYRQAPGKQRELVAAITNQGATTYADSVKGRFTISRDTAGNTVYLQMNSLRPEDTAVHYCKAFTRTDDYWGQGTQVTVSS
notes: as for B1
B12: 2LEC 68 (VHH)
VHH: QVQLQESGGGLVQPGESLRLSCAASGSIFSINAMGWYRQAPGKQRELVAAITDGGAKTYADSVKGRFTISTDNAGNTVYLQMDSLRPEDTAVYYCKAFTRGNDYWGQGTQVTVSS
notes: as for B1
B13: 2LEC 38 (VHH)
VHH: QVQLQESGGGLVQPGGSLRLSCAASGRIFDINAMGWYRQAPGKQRELVAAITNGGQTTYADSVKGRFTISRDNAGNTVYLQMNSLRPEDTAVYYCKAFTRSDDYWGQGTQVTVSS
notes: as for B1
B14: 3LEC 36 (VHH)
VHH: QVQLQESGGGLVQPGGSLRLSCAASGRIGSINSMGWYRQAPGKQREMVAAITNGGATVYADSVKGRFTISRDNAGNTVDLHMNSLRPEDSAVYYCKAFTRGDDYWGQGTQVTVSS
notes: as for B1
B15: 1LEC 91 (VHH)
VHH: QVQLQESGGGLVQPGGSLRLSCAASGFTFDDYAIGWFRQAPGKEHEGVSCISRSDGSTYYDDSVKGRFTISSDNAKNTVYLQMNSLKPEDTAVYYCAAEVPSTYSCSGFREDYKGKGTQVTVSS
notes: as for B1
B16: 2LEC 13 (VHH)
VHH: QVQLQESGGGLVQAGASLRLSCAASGSIFSINAMGWYRQAPGKQRELVAAITNQGRTTYADSVKGRFTISRDNAKNTVYLQMDSLEPEDTAIYYCKGFSPTGDYWGQGTQVTVSS
notes: as for B1
B17: 2LEC 6 (VHH)
VHH: QVQLQESGGGWVQPGGSLRLSCAATGSIVSINAIGWYRQAPGKQRELVASITNQGIRNYSTSVMGRFTISRDDVKNTVSLQMNSLKPEDSAVYYCKGFAGWGKEDYWGQGTQVTVSS
notes: as for B1
B18: 1LEC 70 (VHH)
VHH: QVQLQESGGGLVQPGGSLRLSCAASGSIFSINAMGWYRQAPGKQRELVAAITNQGRLTYADSVKGRFTISRDNAKNTVFLQMDSLKPEDTAVYYCNAKWYDPLVIEYYDNWGQGTQVTVSS
notes: as for B1
B19: 2LEC 55 (VHH)
VHH: QVQLQESGGGLVQTGESLSLSCAVASGSIISINSMGWYRQAPEKQRELVAAITVDGRLAYADSAKHRFTISKESARNTVHLHMSSLKPEDTAVYYCTIWVRDGQQYWGQGTQVTVSS
notes: as for B1
B20: 2LEC 23 (VHH)
VHH: QVQLQESGGGLVQPGGSLRLSCAASGTSFSINGMAWYRQAPGGQRELVGGITSDGSTGYADSVKGRFTVSRDNAKNTVYLQMNRLKPEDTAVYYCGTSTPRGDSYWGQGTQVTVSS
notes: as for B1
B21: 2LEC 48 (VHH)
VHH: QVQLQESGGGLVQAGGSLRLSCAASGTLFSINGMAWYRQAPGKRRELVGGITSDGSTGYADSVKGRFTISRDNAKNTAYLQMNSLKPEDTAVYYCGTSTPRGDSYWGQGTQVTVSS
notes: as for B1
B22: 2LEC 90 (VHH)
VHH: QVQLQESGGGLVQTGGSLRLSCAASGSIFSFNAMGWYRQAPGKQRELVAAITDGGRLTYADSAKGRFTISRENTRNTVHLQMSSLKAEDTADYYCTIWTRDRQQYWGQGTQVTVSS
notes: as for B1
B23: 2LEC 26 (VHH)
VHH: QVQLQESGGGLVETGGSLRLSCAASGSIFSINAMGWYRQAPGKQRELVAAITDQGRLAYADSAKGRFTISRENARNTLHLQMSSLKAEDTAVYYCTIWDRDRQQYWGQGTQVTVSS
notes: as for B1
B24: 3LEC 55 (VHH)
VHH: QVQLQESGGGLVQPGGSLKLSCAASGSIFSFNAMGWYRQAPGKQRELVAAITDGGRLTYADSAKNRFTISRENTRNTVHLQMSSLKAEDTAVYYCTIWTKDRQQYWGQGTQVTVSS
notes: as for B1
B25: 3LEC 30 (VHH)
VHH: QVQLQESGGGLVQTGGSLRLSCAASGSIFSINSMGWYRQAPGKQRELVAAITSQGRSTYADSAKGRFTISLGNARNTVNLQMSSLKTEDTAVYYCTIWARDRQQYWGQGTQVTVSS
notes: as for B1
B26: 1LEC 62 (VHH)
VHH: QVQLQESGGGLVQPGGFLSLSCAASGSMHSVNSMAWYRQVPGKQRELVAAITSGGRLAYAPSVNGRFTISRDYAKNTIHLQMNSLEPEDTAVYYCAALNSATTYWGQGTQVTVSS
notes: as for B1
B27: 2LEC 93 (VHH)
VHH: QVQLQESGGGLVQAGGSLRLSCAASGSIFSINAMGWYRPALGEQRELVAAITTGGRTTYVDSVKGRFSISRDNAKNTVYLQMNSLKPEDTAVYFCKAFTRDEDFWGQGTQVTVSS
notes: as for B1
B28: 1LEC 63 (VHH)
VHH: QVQLQESGGGLVQAGGSLRLSCAATGDISSINAMGWHRPARGNERELVAAITNGGRTTYVDSVKGRFTISRDNAKNTVYLQMNSLKPEDTAVYFCKAYTRDEDYWGQGTQVTVSS
notes: as for B1
B29: 1LEC 30 (VHH)
VHH: QVQLQESGGGLVQAGGSLRLSCAASGSILSINSMGWYRPALGNQRELVAAITNDGRTTYVDSVKGRFTISRDNAKNTVYLQMNSLKPEDTAVYWCKAFTRDKDYWGQGTQVTVSS
notes: as for B1
B30: 2LEC 53 (VHH)
VHH: QVQLQESGGGLVQAGGSLRLSCAASGSIDSINAMGWYRPALGEQRELVAAITTGGRTAYVDSVKGRFTISRDAAKNTVYLQMNSLKPEDTAVYSCKAFTRDTDYWGQGTQVTVSS
notes: as for B1
B31: 3LEC 11 (VHH)
VHH: QVQLQESGGGLVQPGGSLRLSCAASGSISSINAMGWYRQAPGKQRELVAAITGQGRTTYADSVKGRFTISRDGAKNTVYLQMNSLKPEDTAVYYCKVFAADGMEYWGKGTQVTVSS
notes: as for B1
B32: 3LEC 69 (VHH)
VHH: QVQLQESGGGLVQPGGSPRLSCAASGRFFRVNAMGWYRQAPGKQRELVAAITNGGQTAYADSVKGRFTISRDSAKNTVYLQMNSLKSEDTAVYYCKVFAADGMEYWGKGTQVTVSS
notes: as for B1
B33: 1LEC 92 (VHH)
VHH: QVQLQESGGGLVQPGGSLRLSCAASGSISSINAMGWYRQAPGNQRELVAAITNQGRVTYADSVKGRFTISRDGAKNTVYLQMNSLKPEDTAVYYCKVFAASGMEYWGKGTQVTVSS
notes: as for B1

target: T1, human Clec9A (human, UniProt Q6UXN8 1-241); assay: flow cytometry on HEK293-T cells transfected with human Clec9A; His-tagged VHH at 2 µg/ml, anti-His FITC antibody; single concentration
T1 construct: Expressed on transfected CHO-K1, HEK293-T and HL116 cells, or native on human dendritic cells; also called hClec9A; C-type lectin domain family 9 member A
Procedure: The binding characteristics of various VHHs (as described in Example 1) were tested by flow cytometry. HEK293-T cells were transfected with a human Clec9A expression plasmid and stained with the His-tagged VHHs at 2 μg/ml, followed by staining with an anti-His Fitc conjugated antibody. Binding was measured by detecting cellular fluorescence via flow cytometry.

T1 sequence (Q6UXN8 whole entry, the tested form may be a part): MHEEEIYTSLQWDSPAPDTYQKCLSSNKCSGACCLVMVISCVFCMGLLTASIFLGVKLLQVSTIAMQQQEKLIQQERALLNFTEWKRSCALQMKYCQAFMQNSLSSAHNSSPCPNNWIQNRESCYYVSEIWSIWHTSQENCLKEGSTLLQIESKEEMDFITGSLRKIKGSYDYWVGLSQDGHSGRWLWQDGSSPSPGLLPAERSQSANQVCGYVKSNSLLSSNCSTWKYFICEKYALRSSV

Binding result, binds:
B1
B2
B3
B4
B5
B6
B7
B8
B9
B10
B11
B12
B13
B14
B15
B16
B17
B18
B19
B20
B21
B22
B23
B24
B25
B26
B27
B28
B29
B30
B31
B32
B33

Reference: patent US20240360224A1 (ORIONIS BIOSCIENCES, published 2024)
